Substitutions are numbered along the chain they refer to. Read-outs that look alike come from different tables or passages of the source. Each block holds one binder with its values, some of them ahead of it.
Key:
[1] = target: biotinylated human LAP-TGFβ1 (Example 14) (human) (UniProt P01137); experiment: BLI, antigen on tip, CHO supernatant; ratio to wild type
[2] = target: fusion protein of a human IgG1 Fc domain and human LAP-TGFβ1 (human) (UniProt P01137); experiment: SPR (Biacore T200), antigen-Fc captured, 1:1 model
fusion protein of a human IgG1 Fc domain and human LAP-TGFβ1 (human), sequence (P01137 30-390 limits assumed): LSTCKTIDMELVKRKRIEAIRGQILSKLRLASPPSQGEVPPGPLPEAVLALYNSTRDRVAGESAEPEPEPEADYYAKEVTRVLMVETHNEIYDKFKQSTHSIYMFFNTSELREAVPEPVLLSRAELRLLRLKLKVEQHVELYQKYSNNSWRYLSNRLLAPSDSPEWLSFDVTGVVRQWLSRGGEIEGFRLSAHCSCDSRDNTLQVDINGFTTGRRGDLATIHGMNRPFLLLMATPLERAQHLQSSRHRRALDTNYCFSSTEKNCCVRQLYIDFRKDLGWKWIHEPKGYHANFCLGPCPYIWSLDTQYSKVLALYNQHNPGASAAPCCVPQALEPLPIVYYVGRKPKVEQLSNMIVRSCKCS

[3] = target: fusion protein of a human IgG1 Fc domain and mouse LAP-TGFβ1 (human; mouse) (UniProt P04202); experiment: SPR (Biacore T200), antigen-Fc captured, 1:1 model
fusion protein of a human IgG1 Fc domain and mouse LAP-TGFβ1 (human; mouse), sequence (P04202 30-390 limits assumed): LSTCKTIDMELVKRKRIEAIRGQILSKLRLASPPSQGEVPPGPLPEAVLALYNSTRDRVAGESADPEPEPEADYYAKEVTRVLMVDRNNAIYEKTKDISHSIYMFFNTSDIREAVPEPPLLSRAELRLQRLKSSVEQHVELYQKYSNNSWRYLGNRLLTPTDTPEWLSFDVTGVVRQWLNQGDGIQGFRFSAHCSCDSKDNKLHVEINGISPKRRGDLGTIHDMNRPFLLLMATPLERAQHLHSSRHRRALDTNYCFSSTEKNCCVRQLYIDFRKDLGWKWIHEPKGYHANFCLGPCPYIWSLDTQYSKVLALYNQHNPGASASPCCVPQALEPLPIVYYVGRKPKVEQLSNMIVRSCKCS

[4] = target: fusion protein of a human IgG1 Fc domain and rat LAP-TGFβ1 (human; rat) (UniProt P17246); experiment: SPR (Biacore T200), antigen-Fc captured, 1:1 model
fusion protein of a human IgG1 Fc domain and rat LAP-TGFβ1 (human; rat), sequence (P17246 30-390 limits assumed): as the sequence (P04202 30-390 limits assumed) above, with E93D, S99T, L131F, S134T, K202V counted along it

[5] = target: fusion protein of a human IgG1 Fc domain and human LAP-TGFβ1 (human) (UniProt P01137); experiment: SPR (Biacore T200), antigen-Fc captured, 1:1 model; remark: listed apart in the source
[6] = target: fusion protein of a human IgG1 Fc domain and cynomolgus monkey LAP-TGFβ1 (human; cynomolgus monkey); experiment: SPR (Biacore T200), antigen-Fc captured, 1:1 model
[7] = target: human-chicken LAP-TGFβ1 chimera #1 on HT1080 cells (human/chicken chimera); experiment: flow cytometry, transduced HT1080 cells
human-chicken LAP-TGFβ1 chimera #1 on HT1080 cells (human/chicken chimera), sequence (chain, as listed by the source mutant limits assumed): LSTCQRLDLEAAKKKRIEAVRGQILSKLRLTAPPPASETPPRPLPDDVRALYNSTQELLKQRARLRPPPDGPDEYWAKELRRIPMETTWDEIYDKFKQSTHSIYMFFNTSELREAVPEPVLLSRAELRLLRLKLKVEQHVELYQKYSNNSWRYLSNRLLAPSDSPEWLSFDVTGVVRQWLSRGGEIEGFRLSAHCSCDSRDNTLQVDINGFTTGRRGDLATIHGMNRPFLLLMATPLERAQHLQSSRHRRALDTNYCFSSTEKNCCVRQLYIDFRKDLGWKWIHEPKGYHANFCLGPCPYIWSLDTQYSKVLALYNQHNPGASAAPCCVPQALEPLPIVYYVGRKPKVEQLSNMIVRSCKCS

[8] = target: human-chicken LAP-TGFβ1 chimera #2 on HT1080 cells (human/chicken chimera); experiment: flow cytometry, transduced HT1080 cells
human-chicken LAP-TGFβ1 chimera #2 on HT1080 cells (human/chicken chimera), sequence (chain, as listed by the source mutant limits assumed): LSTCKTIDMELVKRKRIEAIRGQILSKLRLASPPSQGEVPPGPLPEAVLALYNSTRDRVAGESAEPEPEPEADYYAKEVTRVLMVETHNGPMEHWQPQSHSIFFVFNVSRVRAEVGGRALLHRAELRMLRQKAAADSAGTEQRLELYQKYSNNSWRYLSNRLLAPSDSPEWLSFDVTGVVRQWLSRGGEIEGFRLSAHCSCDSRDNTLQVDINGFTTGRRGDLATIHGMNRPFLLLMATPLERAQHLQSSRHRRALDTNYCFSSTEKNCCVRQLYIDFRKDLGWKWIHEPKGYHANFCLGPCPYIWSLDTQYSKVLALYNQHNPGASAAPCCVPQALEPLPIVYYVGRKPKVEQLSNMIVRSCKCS

biotinylated human LAP-TGFβ1 (Example 14) (human), sequence (P01137 30-390 limits assumed): as the sequence (P01137 30-390 limits assumed) above

Kd [2]: 40.8 nM | koff [2]: 0.08 s⁻¹ | kon [2]: 1.96e+06 M⁻¹ s⁻¹ | Kd [3]: 48.3 nM | koff [3]: 0.079 s⁻¹ | kon [3]: 1.64e+06 M⁻¹ s⁻¹ | Kd [4]: 59.4 nM | koff [4]: 0.106 s⁻¹ | kon [4]: 1.79e+06 M⁻¹ s⁻¹ | Kd [5]: 49.5 nM | koff [5]: 0.0939 s⁻¹ | kon [5]: 1.91e+06 M⁻¹ s⁻¹ | Kd [6]: 60.3 nM | koff [6]: 0.095 s⁻¹ | kon [6]: 1.58e+06 M⁻¹ s⁻¹
B2: humanized 20E6 F(ab′) binding protein (Fab, V domains shown)
VH: EVQLVQSGAEVKKPGASVKVSCKASGYTFTSYWMHWVRQAPGQGLEWMGRIDPQSGGIKYAQKFQGRATLTVDTSTSTAYMELSRLRSDDTAVYYCARWDYGGYFDVWGQGTLVTVSS
VL: DIQMTQSPSSLSASVGDRVTITCRASQDITNYLNWYQQKPGKAVKLLIYYTSRLHSGVPSRFSGSGSGTDYTLTISSLQPEDFATYFCQQGDTLPWTFGQGTKLEIKR

KD,WT/KD,Ala [1]: 0
B3: 20E6_H0.2aL1_hIgG1 VL_L94A (antibody, V domains shown)
VH: B2 VH
VL: B2 VL with L94A

KD,WT/KD,Ala [1]: 0
B7: 20E6_H0.2aL1_hIgG1 VL_D28A (antibody, V domains shown)
VH: B2 VH
VL: B2 VL with D28A

KD,WT/KD,Ala [1]: 0
B8: 20E6_H0.2aL1_hIgG1 VL_Y32A (antibody, V domains shown)
VH: B2 VH
VL: B2 VL with Y32A

KD,WT/KD,Ala [1]: 0
B19: 20E6_H0.2aL1_hIgG1 VL_W96A (antibody, V domains shown)
VH: B2 VH
VL: B2 VL with W96A

KD,WT/KD,Ala [1]: 0
B20: 20E6_H0.2aL1_hIgG1 VH_W99A (antibody, V domains shown)
VH: B2 VH with W99A
VL: B2 VL

KD,WT/KD,Ala [1]: 0
B22: 20E6_H0.2aL1_hIgG1 VH_G103A (antibody, V domains shown)
VH: B2 VH with G103A
VL: B2 VL

More lines, now with the values behind:

B1: 20E6_H0.2aL1_hIgG1 VH_R50A (antibody, V domains shown)
VH: B2 VH with R50A
VL: B2 VL
KD,WT/KD,Ala [1]: 0

B4: 20E6_H0.2aL1_hIgG1 VL_Y50A (antibody, V domains shown)
VH: B2 VH
VL: B2 VL with Y50A
KD,WT/KD,Ala [1]: 0

B5: 20E6_H0.2aL1_hIgG1 VL_Q90A (antibody, V domains shown)
VH: B2 VH
VL: B2 VL with Q90A
KD,WT/KD,Ala [1]: 0

B6: 20E6_H0.2aL1_hIgG1 VL_G91A (antibody, V domains shown)
VH: B2 VH
VL: B2 VL with G91A
KD,WT/KD,Ala [1]: 0

B9: 20E6_H0.2aL1_hIgG1 VH_Y104A (antibody, V domains shown)
VH: B2 VH with Y104A
VL: B2 VL
KD,WT/KD,Ala [1]: 0

B10: 20E6_H0.2aL1_hIgG1 VL_L33A (antibody, V domains shown)
VH: B2 VH
VL: B2 VL with L33A
KD,WT/KD,Ala [1]: 0.08

B11: 20E6_H0.2aL1_hIgG1 VH_G102A (antibody, V domains shown)
VH: B2 VH with G102A
VL: B2 VL
KD,WT/KD,Ala [1]: 0

B12: 20E6_H0.2aL1_hIgG1 VL_N34A (antibody, V domains shown)
VH: B2 VH
VL: B2 VL with N34A
KD,WT/KD,Ala [1]: 0.07

B13: 20E6_H0.2aL1_hIgG1 VL_P95A (antibody, V domains shown)
VH: B2 VH
VL: B2 VL with P95A
KD,WT/KD,Ala [1]: 0

B14: 20E6_H0.2aL1_hIgG1 VH_F105A (antibody, V domains shown)
VH: B2 VH with F105A
VL: B2 VL
KD,WT/KD,Ala [1]: 0

B15: 20E6_H0.2aL1_hIgG1 VL_Q27A (antibody, V domains shown)
VH: B2 VH
VL: B2 VL with Q27A
KD,WT/KD,Ala [1]: 0.03

B16: 20E6_H0.2aL1_hIgG1 VH_Y101A (antibody, V domains shown)
VH: B2 VH with Y101A
VL: B2 VL
KD,WT/KD,Ala [1]: 0

B17: 20E6_H0.2aL1_hIgG1 VL_D92A (antibody, V domains shown)
VH: B2 VH
VL: B2 VL with D92A
KD,WT/KD,Ala [1]: 0

B18: 20E6_H0.2aL1_hIgG1 VL_T97A (antibody, V domains shown)
VH: B2 VH
VL: B2 VL with T97A
KD,WT/KD,Ala [1]: 0.01

B21: 20E6_H0.2aL1_hIgG1 VL_A25G (antibody, V domains shown)
VH: B2 VH
VL: B2 VL with A25G
KD,WT/KD,Ala [1]: 0.09

B23: 28G11_(hyb) (antibody, mouse IgG2b, kappa, V domains shown)
VH: EVKLVESGGGLVQPGGSLSLSCAASGFTFTDYYMSWVRQPPGKALEWLGFIRNKPNGYTTEYSASVKGRFTISRDNSQSILYLQMNVLRAEDSATYYCARYTGGGYFDYWGQGTTLTVSS
VL: DIQMTQTTSSLSASLGDRLTISCRASQDISNYLNWYQQKPDGTVKLLIYYTSRLHSGVPSRFSGSGSGTDYSLTISNLEQADIATYFCQQGDTLPWTFGGGTKLEIKR
% GFP+/APC+ cells [7]: 0.2% | % GFP+/APC+ cells [8]: 0.2%
